According to patent US20140363427A1:

Legend:
[1] = target: F protein of RSV B-1 (respiratory syncytial virus B-1) (UniProt O36634); experiment: cell-based or functional assay
[2] = target: F protein of RSV B-wash (strain 18537) (respiratory syncytial virus B, strain 18537) (UniProt P13843); experiment: cell-based or functional assay
[3] = target: RSV F A2 mutant F351S (human RSV, A2 strain) (UniProt P03420); experiment: mutant F in HEK 293 cells
[4] = target: RSV F A2 mutant V278M (human RSV, A2 strain) (UniProt P03420); experiment: mutant F in HEK 293 cells
[5] = target: F protein of the parental RSV A2 strain (Example 11) (Respiratory Syncytial Virus strain A2) (UniProt P03420); experiment: cell-based or functional assay
[6] = target: native RSV F protein from the RSV A2 strain (Respiratory Syncytial Virus strain A2) (UniProt P03420); experiment: cell-based or functional assay
[7] = target: F protein of the 58C5 MARM (N63K, M115K, E295G) (Respiratory Syncytial Virus strain A2, escape mutant) (UniProt P03420); experiment: cell-based or functional assay
[8] = target: F protein of the Motavizumab MARM (K272E) (Respiratory Syncytial Virus strain A2, escape mutant) (UniProt P03420); experiment: cell-based or functional assay
[9] = target: RSV F A2 mutant N371D (human RSV, A2 strain) (UniProt P03420); experiment: mutant F in HEK 293 cells
[10] = target: RSV F A2 mutant E82G (human RSV, A2 strain) (UniProt P03420); experiment: mutant F in HEK 293 cells
[11] = target: RSV F A2 mutant E463A (human RSV, A2 strain) (UniProt P03420); experiment: mutant F in HEK 293 cells
[12] = target: RSV F A2 mutant S403A (human RSV, A2 strain) (UniProt P03420); experiment: mutant F in HEK 293 cells
[13] = target: RSV F A2 mutant Y86C (human RSV, A2 strain) (UniProt P03420); experiment: mutant F in HEK 293 cells

Fab 58c5 showed an Average Plaque Count, RSV B-1, Fab at 0.003 µg/ml (12.3 at 0 µg/ml) [1] of 11.7, an Average Plaque Count, RSV B-1, Fab at 0.016 µg/ml (12.3 at 0 µg/ml) [1] of 8.7 and an Average Plaque Count, RSV B-1, Fab at 0.08 µg/ml (12.3 at 0 µg/ml) [1] of 4.7. For the same substance, the Average Plaque Count, RSV B-1, Fab at 0.4 µg/ml (12.3 at 0 µg/ml) [1] was 0, the Average Plaque Count, RSV B-1, Fab at 2 µg/ml (12.3 at 0 µg/ml) [1] was 0 and the Average Plaque Count, RSV B-1, Fab at 10 µg/ml (12.3 at 0 µg/ml) [1] was 0.3. It also gave an ED50, plaque reduction, RSV B-1 [1] of 840 pM, an ED50, plaque reduction, RSV B-1 (mass concentration) [1] of 0.042 µg/mL and an Average Plaque Count, RSV B/wash, Fab at 0.003 µg/ml (26.3 at 0 µg/ml) [2] of 23.3. It also gave an Average Plaque Count, RSV B/wash, Fab at 0.016 µg/ml (26.3 at 0 µg/ml) [2] of 16.3, an Average Plaque Count, RSV B/wash, Fab at 0.08 µg/ml (26.3 at 0 µg/ml) [2] of 5 and an Average Plaque Count, RSV B/wash, Fab at 0.4 µg/ml (26.3 at 0 µg/ml) [2] of 0. For the same substance, the Average Plaque Count, RSV B/wash, Fab at 2 µg/ml (26.3 at 0 µg/ml) [2] was 0.7, the Average Plaque Count, RSV B/wash, Fab at 10 µg/ml (26.3 at 0 µg/ml) [2] was 1.3 and the ED50, plaque reduction, RSV B/wash [2] was 500 pM. The ED50, plaque reduction, RSV B/wash (mass concentration) [2] was 0.025 µg/mL.
Substance IgG form of 58c5 (antibody) has an immunoluminescence Mean [3] of 7.4, an immunoluminescence S1 [3] of 2.9 and an immunoluminescence S3 [3] of 6.1. For the same substance, the immunoluminescence S4 [3] was 14.7, the immunoluminescence Mean [4] was 99.8 and the immunoluminescence S1 [4] was 122. The immunoluminescence S2 [4] was 97.6, the immunoluminescence S3 [4] was 79.6 and the ED50, plaque reduction, RSV B-1 [1] was 280 pM. The ED50, plaque reduction, RSV A2 parental [5] was 115 pM, the ED50, plaque reduction, RSV A2 [6] was 133 pM and the ED50, plaque reduction, 58C5 MARM [7] was > 66.7 nM. The ED50, plaque reduction, Motavizumab MARM [8] was 173 pM and the ED50, plaque reduction, RSV B/wash [2] was 193 pM.
Motavizumab IgG (antibody) was tested, and the immunoluminescence Mean [9] was 26.9, the immunoluminescence Mean [10] was 42.1 and the immunoluminescence Mean [11] was 101. For the same substance, the immunoluminescence Mean [12] was 28 and the immunoluminescence Mean [13] was 24.8.
